Patent US20250361282A1 (Bayer, published 2025)
Several values for one entry are separate records, joined by “and”; a condition that tells them apart may be missing. Equal values may be shown once. One block for each binder: values may come before it.

Legend:
human NPRA [1] = target: T1, human NPRA (human, UniProt P16066 33-1061); assay: cell-based or functional assay
T1 sequence (looked up): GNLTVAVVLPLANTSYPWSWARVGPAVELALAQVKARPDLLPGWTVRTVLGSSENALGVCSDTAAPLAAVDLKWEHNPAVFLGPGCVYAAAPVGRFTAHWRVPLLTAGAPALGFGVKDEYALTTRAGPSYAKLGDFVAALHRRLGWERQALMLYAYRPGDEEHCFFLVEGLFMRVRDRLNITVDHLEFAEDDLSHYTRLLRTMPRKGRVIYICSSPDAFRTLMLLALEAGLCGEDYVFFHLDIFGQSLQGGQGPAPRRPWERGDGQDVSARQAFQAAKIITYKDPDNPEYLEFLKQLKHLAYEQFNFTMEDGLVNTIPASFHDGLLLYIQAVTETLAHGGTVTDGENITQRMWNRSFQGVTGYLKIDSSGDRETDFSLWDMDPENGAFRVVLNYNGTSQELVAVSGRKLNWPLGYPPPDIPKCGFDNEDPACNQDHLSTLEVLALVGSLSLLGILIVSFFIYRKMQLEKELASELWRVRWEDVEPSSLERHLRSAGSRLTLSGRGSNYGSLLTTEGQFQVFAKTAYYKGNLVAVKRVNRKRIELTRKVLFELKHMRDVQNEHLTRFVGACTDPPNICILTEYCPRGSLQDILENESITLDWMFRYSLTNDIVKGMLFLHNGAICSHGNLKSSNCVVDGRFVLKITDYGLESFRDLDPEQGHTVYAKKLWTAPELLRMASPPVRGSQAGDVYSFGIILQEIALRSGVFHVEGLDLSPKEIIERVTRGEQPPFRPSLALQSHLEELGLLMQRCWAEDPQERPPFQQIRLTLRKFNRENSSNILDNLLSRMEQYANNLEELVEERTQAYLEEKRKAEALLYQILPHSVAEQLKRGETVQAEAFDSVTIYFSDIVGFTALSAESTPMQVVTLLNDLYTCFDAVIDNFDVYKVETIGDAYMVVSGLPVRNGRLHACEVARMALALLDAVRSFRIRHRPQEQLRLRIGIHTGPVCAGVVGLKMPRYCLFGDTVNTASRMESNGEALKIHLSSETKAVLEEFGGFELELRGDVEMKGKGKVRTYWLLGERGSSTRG

human NPRA [2] = target: T2, human NPRA (human, UniProt P16066 33-1061); assay: cell-based or functional assay; remark: listed apart in the source
T2 sequence (looked up): T1 sequence (looked up)

activity rcs (cGMP, hNPRA-CHO k1) (human NPRA [1]): 41%
average rel logEC50 (vs TPP-5661) (human NPRA [1]): -0.3
rel. logEC50* pcs (vs TPP-5661, hNPRA-HEK293) (human NPRA [1]): -0.5 and -0.6 and -0.4
rel. logEC50 pcs 4 (vs TPP-5661, hNPRA-CHO k1) (human NPRA [1]): -0.2
rel. logEC50 pcs 7 (vs TPP-5661, hNPRA-CHO k1) (human NPRA [1]): 0
B1: TPP-10294 (antibody, human IgG1, lambda)
heavy: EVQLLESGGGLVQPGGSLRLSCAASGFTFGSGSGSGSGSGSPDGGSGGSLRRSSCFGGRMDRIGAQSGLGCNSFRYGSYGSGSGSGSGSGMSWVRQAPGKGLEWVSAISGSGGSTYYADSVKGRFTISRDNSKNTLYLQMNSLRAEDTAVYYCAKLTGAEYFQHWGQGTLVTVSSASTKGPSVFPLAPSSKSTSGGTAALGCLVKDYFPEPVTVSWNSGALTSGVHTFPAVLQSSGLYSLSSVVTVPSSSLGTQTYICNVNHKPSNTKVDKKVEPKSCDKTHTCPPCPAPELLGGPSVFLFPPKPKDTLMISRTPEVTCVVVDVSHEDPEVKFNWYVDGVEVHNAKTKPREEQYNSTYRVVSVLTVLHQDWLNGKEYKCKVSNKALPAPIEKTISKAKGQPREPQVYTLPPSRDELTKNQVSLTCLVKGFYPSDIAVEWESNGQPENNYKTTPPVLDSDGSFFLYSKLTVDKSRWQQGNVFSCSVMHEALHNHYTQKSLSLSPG
light: QSVLTQPPSVSGAPGQRVTISCTGSSSNIGAGYDVHWYQQLPGTAPKLLIYGNSNRPSGVPDRFSGSKSGTSASLAITGLQAEDEADYYCQSYDSSLSGVVFGGGTKLTVLGQPKAAPSVTLFPPSSEELQANKATLVCLISDFYPGAVTVAWKADSSPVKAGVETTTPSKQSNNKYAASSYLSLTPEQWKSHRSYSCQVTHEGSTVEKTVAPTECS

activity rcs (cGMP, hNPRA-CHO k1) (human NPRA [1]): 30%
average rel logEC50 (vs TPP-5661) (human NPRA [1]): 0.1
rel. activity rcs (delta logEC50 vs TPP-5661, hNPRA-CHO k1) (human NPRA [1]): 0.3
rel. logEC50 pcs 1 (vs TPP-5661, hNPRA-CHO k1) (human NPRA [1]): 0.3
rel. logEC50 pcs 2 (vs TPP-5661, hNPRA-CHO k1) (human NPRA [1]): -0.2
rel. logEC50 pcs 4 (vs TPP-5661, hNPRA-CHO k1) (human NPRA [1]): 0.1
rel. logEC50 pcs 5 (vs TPP-5661, hNPRA-CHO k1) (human NPRA [1]): 0.2
B2: TPP-10282 (antibody, human IgG1, lambda)
heavy: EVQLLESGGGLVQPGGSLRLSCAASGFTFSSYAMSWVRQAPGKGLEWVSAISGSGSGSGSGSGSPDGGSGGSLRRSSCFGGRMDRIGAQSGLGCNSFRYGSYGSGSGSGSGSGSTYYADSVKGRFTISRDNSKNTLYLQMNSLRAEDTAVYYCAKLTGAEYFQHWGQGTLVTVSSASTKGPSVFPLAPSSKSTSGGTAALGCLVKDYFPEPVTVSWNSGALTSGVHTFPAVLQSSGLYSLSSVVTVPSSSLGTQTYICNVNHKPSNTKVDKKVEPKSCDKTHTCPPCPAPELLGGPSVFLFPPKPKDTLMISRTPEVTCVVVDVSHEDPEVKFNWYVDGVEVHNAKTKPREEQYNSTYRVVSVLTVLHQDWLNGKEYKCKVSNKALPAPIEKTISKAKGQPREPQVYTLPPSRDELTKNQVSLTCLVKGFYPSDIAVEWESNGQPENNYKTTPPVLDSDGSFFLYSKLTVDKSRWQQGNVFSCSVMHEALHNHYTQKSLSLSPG
light: B1 light

average rel logEC50 (vs TPP-5661) (human NPRA [1]): -0.8
rel. logEC50* pcs (vs TPP-5661, hNPRA-HEK293) (human NPRA [1]): -0.7 and -0.8
B3: TPP-13054 (antibody, human IgG1, lambda)
heavy: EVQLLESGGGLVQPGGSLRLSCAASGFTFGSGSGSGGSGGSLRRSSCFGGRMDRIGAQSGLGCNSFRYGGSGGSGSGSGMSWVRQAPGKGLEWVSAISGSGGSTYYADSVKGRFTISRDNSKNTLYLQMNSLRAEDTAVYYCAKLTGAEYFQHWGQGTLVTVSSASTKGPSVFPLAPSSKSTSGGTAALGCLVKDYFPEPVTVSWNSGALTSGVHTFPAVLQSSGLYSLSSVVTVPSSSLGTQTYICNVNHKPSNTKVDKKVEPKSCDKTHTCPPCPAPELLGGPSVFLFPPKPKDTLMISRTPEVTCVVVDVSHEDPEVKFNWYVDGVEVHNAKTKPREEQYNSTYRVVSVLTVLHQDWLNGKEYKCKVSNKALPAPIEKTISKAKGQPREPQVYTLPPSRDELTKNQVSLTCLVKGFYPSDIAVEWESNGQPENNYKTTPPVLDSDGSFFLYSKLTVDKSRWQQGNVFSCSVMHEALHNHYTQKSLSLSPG
light: B1 light

average rel logEC50 (vs TPP-5661) (human NPRA [1]): -0.5
rel. logEC50 pcs 5 (vs TPP-5661, hNPRA-CHO k1) (human NPRA [1]): 0
rel. logEC50 pcs 6 (vs TPP-5661, hNPRA-CHO k1) (human NPRA [1]): -0.9
B4: TPP-10847 (antibody, human IgG1, lambda)
heavy: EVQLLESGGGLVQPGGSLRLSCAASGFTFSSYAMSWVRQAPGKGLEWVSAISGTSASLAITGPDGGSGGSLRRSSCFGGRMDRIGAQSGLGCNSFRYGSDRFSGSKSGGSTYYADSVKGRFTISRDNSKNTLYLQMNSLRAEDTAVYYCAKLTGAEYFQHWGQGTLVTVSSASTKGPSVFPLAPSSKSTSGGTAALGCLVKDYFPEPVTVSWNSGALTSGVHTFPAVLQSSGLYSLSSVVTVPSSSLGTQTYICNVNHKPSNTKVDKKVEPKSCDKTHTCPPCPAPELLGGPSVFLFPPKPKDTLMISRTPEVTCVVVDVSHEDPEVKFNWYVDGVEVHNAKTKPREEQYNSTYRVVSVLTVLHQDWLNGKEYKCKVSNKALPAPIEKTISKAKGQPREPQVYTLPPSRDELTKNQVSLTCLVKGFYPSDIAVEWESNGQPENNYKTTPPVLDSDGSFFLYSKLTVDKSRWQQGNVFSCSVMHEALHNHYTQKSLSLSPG
light: B1 light

activity rcs (human NPRA [2]): 84%
average rel logEC50 (human NPRA [2]): -0.5 delta logEC50 vs TPP-5661
rel. logEC50 pcs 2 (human NPRA [2]): -0.8 delta logEC50 vs TPP-5661
rel. logEC50 pcs 3 (human NPRA [2]): -0.1 delta logEC50 vs TPP-5661
B5: TPP-10290 (antibody)
heavy: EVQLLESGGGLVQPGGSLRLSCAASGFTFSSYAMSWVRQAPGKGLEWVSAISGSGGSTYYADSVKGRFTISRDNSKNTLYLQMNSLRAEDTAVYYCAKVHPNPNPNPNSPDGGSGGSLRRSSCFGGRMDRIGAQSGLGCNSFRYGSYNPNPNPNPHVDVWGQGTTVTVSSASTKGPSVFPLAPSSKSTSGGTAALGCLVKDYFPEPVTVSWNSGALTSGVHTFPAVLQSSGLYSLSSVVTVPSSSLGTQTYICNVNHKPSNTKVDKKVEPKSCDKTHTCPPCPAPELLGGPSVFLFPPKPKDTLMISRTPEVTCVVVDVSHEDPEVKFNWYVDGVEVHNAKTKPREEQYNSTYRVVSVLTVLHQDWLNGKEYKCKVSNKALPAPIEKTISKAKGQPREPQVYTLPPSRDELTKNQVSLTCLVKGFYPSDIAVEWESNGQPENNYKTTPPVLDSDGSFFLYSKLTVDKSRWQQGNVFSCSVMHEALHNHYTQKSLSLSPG
light: B1 light

average rel logEC50 (vs TPP-5661) (human NPRA [1]): -0.7
rel. logEC50* pcs (vs TPP-5661, hNPRA-HEK293) (human NPRA [1]): -0.6 and -0.8
B6: TPP-13061 (antibody, human IgG1, lambda)
heavy: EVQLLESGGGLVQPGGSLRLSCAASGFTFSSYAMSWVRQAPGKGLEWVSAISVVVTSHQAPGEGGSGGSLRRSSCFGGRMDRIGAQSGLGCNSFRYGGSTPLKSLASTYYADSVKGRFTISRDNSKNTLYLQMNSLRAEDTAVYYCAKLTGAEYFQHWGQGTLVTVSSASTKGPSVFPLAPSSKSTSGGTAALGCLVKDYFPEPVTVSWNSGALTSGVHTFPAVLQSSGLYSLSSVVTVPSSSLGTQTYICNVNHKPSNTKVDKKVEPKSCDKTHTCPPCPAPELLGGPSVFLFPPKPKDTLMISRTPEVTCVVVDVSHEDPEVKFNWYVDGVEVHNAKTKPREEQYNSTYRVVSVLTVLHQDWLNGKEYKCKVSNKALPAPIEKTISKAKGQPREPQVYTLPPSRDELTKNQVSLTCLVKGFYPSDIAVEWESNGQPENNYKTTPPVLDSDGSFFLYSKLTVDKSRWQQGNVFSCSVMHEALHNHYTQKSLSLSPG
light: B1 light

activity rcs (cGMP, hNPRA-CHO k1) (human NPRA [1]): 71%
average rel logEC50 (vs TPP-5661) (human NPRA [1]): -0.1
rel. logEC50 pcs 2 (vs TPP-5661, hNPRA-CHO k1) (human NPRA [1]): -0.3
rel. logEC50 pcs 3 (vs TPP-5661, hNPRA-CHO k1) (human NPRA [1]): -0.2
rel. logEC50 pcs 7 (vs TPP-5661, hNPRA-CHO k1) (human NPRA [1]): 0
B7: TPP-10274 (antibody)
heavy: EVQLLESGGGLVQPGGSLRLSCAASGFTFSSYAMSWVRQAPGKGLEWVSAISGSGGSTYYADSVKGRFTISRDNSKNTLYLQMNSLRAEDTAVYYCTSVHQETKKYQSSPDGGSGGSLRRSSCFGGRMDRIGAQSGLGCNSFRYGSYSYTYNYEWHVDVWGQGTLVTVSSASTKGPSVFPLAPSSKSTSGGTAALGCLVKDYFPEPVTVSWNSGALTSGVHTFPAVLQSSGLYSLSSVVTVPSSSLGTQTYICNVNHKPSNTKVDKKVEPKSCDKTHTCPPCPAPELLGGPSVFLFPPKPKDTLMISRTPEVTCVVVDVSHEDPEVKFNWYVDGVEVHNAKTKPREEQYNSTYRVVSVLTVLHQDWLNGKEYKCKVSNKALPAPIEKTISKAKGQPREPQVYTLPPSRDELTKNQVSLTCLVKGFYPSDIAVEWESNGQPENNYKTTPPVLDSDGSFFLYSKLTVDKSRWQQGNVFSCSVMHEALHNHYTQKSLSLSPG
light: B1 light

activity rcs (cGMP, hNPRA-CHO k1) (human NPRA [1]): 67%
average rel logEC50 (vs TPP-5661) (human NPRA [1]): -0.6
rel. logEC50 pcs 5 (vs TPP-5661, hNPRA-CHO k1) (human NPRA [1]): -0.4
rel. logEC50 pcs 6 (vs TPP-5661, hNPRA-CHO k1) (human NPRA [1]): -0.8
B8: TPP-10845 (antibody, human IgG1, lambda)
heavy: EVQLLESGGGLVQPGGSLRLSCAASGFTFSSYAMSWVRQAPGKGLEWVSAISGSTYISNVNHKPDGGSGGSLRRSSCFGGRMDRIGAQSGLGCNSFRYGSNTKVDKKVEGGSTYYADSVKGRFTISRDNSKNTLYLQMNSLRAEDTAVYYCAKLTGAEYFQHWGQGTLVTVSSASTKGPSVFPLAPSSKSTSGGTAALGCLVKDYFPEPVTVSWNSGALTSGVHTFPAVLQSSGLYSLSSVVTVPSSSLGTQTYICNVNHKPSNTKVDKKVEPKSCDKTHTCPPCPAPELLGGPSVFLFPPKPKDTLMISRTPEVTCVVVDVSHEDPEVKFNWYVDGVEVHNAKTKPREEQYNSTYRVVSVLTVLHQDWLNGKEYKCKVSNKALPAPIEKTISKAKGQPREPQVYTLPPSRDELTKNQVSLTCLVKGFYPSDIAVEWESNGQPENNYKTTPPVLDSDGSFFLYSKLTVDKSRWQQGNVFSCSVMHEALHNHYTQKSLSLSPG
light: B1 light

average rel logEC50 (human NPRA [2]): -0.3 delta logEC50 vs TPP-5661
rel. logEC50 pcs 9 (human NPRA [2]): -0.3 delta logEC50 vs TPP-5661
B9: TPP-13230 (antibody)
heavy: not shown
light: B1 light

activity rcs (human NPRA [2]): 36%
average rel logEC50 (human NPRA [2]): 0 delta logEC50 vs TPP-5661
rel. activity rcs (human NPRA [2]): 0 delta logEC50 vs TPP-5661
rel. logEC50* pcs (human NPRA [2]): 0 delta logEC50 vs TPP-5661
rel. logEC50 ics (human NPRA [2]): 0 delta logEC50 vs TPP-5661
rel. logEC50 pcs 1 (human NPRA [2]): 0 delta logEC50 vs TPP-5661
rel. logEC50 pcs 2 (human NPRA [2]): 0 delta logEC50 vs TPP-5661
rel. logEC50 pcs 3 (human NPRA [2]): 0 delta logEC50 vs TPP-5661
rel. logEC50 pcs 4 (human NPRA [2]): 0 delta logEC50 vs TPP-5661
rel. logEC50 pcs 5 (human NPRA [2]): 0 delta logEC50 vs TPP-5661
rel. logEC50 pcs 6 (human NPRA [2]): 0 delta logEC50 vs TPP-5661
rel. logEC50 pcs 7 (human NPRA [2]): 0 delta logEC50 vs TPP-5661
rel. logEC50 pcs 8 (human NPRA [2]): 0 delta logEC50 vs TPP-5661
rel. logEC50 pcs 9 (human NPRA [2]): 0 delta logEC50 vs TPP-5661
B10: TPP-5661 (antibody)
heavy: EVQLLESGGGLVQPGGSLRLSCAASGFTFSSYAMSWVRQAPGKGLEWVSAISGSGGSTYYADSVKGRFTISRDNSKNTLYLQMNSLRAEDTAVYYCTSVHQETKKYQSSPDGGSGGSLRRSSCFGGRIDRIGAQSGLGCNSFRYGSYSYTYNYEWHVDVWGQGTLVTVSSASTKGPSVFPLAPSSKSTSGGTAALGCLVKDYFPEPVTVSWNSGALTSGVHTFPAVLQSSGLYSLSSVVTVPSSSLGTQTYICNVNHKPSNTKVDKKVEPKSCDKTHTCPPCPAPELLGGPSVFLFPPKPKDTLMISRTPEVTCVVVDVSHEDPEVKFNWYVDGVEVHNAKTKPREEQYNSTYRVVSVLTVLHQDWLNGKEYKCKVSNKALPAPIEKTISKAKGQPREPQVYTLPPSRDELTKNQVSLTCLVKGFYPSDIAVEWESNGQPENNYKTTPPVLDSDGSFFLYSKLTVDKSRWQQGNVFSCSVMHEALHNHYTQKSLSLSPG
light: B1 light

activity rcs (cGMP, hNPRA-CHO k1) (human NPRA [1]): 83%
average rel logEC50 (vs TPP-5661) (human NPRA [1]): -0.8
rel. activity rcs (delta logEC50 vs TPP-5661, hNPRA-CHO k1) (human NPRA [1]): -0.8
rel. logEC50 pcs 5 (vs TPP-5661, hNPRA-CHO k1) (human NPRA [1]): -0.8
B11: TPP-10283 (antibody, human IgG1, lambda)
heavy: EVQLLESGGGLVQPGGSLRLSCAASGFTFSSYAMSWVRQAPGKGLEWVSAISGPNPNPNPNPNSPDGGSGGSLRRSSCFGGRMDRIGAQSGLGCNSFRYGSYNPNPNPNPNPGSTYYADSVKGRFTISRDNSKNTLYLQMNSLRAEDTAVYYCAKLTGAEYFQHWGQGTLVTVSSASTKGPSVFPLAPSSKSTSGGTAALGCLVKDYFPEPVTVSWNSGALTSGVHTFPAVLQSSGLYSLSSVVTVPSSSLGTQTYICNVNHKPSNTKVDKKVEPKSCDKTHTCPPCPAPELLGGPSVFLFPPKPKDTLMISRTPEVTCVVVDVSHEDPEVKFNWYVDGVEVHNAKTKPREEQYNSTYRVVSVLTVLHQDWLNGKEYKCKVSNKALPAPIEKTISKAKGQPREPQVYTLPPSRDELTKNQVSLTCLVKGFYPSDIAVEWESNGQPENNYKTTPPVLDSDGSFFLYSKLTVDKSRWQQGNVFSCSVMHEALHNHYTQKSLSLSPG
light: B1 light

activity rcs (cGMP, hNPRA-CHO k1) (human NPRA [1]): 72%
average rel logEC50 (vs TPP-5661) (human NPRA [1]): -0.4
rel. activity rcs (delta logEC50 vs TPP-5661, hNPRA-CHO k1) (human NPRA [1]): -0.9
rel. logEC50 pcs 5 (vs TPP-5661, hNPRA-CHO k1) (human NPRA [1]): -0.9
rel. logEC50 pcs 6 (vs TPP-5661, hNPRA-CHO k1) (human NPRA [1]): -0.4
rel. logEC50 pcs 7 (vs TPP-5661, hNPRA-CHO k1) (human NPRA [1]): 0.2
B12: TPP-10765 (antibody, human IgG1, lambda)
heavy: not shown
light: B1 light
